Non-standard residues stand in square brackets, D forms with d. Primed or numbered codes have the meaning given here. No end group written: not given here. *: point of attachment. R(dz)″ = photo-arginine carrying a diazirine photo-crosslinker; Biotin = O=C1N[C@H]2[C@H](CS[C@H]2CCCCC(=O)*)N1
Molecular target: PHD domain of UHRF1 (UHRF1PHD)
Assay: ITC; 25 °C, MicroCal PEAQ-ITC; protein in the cell titrated with 19 injections of peptide

Binder: A[R(dz)″]TKQTARKSTGGK(Biotin)A-NH2 [H3K4‐R2dz (probe 1)]
- Kd: 10.6 µM

From article PMC11005723, “Development of Complementary Photo‐arginine/lysine to Promote Discovery of Arg/Lys hPTMs Interactomes” (Advanced Science, 2024)
